B1: Heteropoda peptide AU 3 (peptide)
peptide: DCGTIWHYCGTDQSECCEGWKCSRQLCKYVIDW-NH2
modifications: not fully specified (bridges); also: 3 disulfide bonds, pairing not given here
B2: Heteropoda peptide AU 5A (peptide)
peptide: DDDCGWIMDDCTSDSDCCPNWVCSKTGFVKNICKYEM-NH2
modifications: not fully specified (bridges); also: 3 disulfide bonds, pairing not given here
B3: Heteropoda peptide KJ 5 (peptide)
peptide: DCGTIWHYCGTDQSECCEGWKCSRQLCKYVIDW-NH2
modifications: not fully specified (bridges); also: 3 disulfide bonds, pairing not given here
B4: Heteropoda peptide KJ 7 (peptide)
peptide: ECGTLFSGCSTHADCCEGFICKLWCRYERTW-NH2
modifications: disulfide (positions not given here)
B5: Heteropoda peptide AU 2 (peptide)
peptide: DDCGGLFSGCDSNADCCEGYVCRLWCKYKL-NH2
modifications: not fully specified (bridges); also: 3 disulfide bonds, pairing not given here
B6: Heteropoda peptide KJ 1 (peptide)
peptide: DDCGTLFSGCDTSKDCCEGYVCHLWCKYK-NH2
modifications: not fully specified (bridges); also: 3 disulfide bonds, pairing not given here
B7: Heteropoda peptide KJ 6 (peptide)
peptide: DDCGKLFSGCDTNADCCEGYVCRLWCKLDW-NH2
modifications: disulfide (positions not given here)
B8: Heteropoda peptide AU 5B (peptide)
peptide: ADCGWLFHSCESNADCCENWACATTGRFRYLCKYQI-NH2
modifications: not fully specified (bridges); also: 3 disulfide bonds, pairing not given here
B9: Heteropoda peptide AU 5C (peptide)
peptide: ECGTLFSGCSTHADCCEGFICKLWCRYERTW-NH2
modifications: not fully specified (bridges); also: 3 disulfide bonds, pairing not given here

Where no end group is shown, it is not given here.

For orientation: IC50 means the point on the concentration scale where inhibition reaches its midpoint.

The first assay concerns the target calcium channels.
Conditions: not given
Consider B1, for which the IC50 for blocking calcium channels (decrease in fura2 fluorescence) is below 3000 nM.

As to B2, the IC50 for blocking calcium channels (decrease in fura2 fluorescence) was below 3000 nM.

Regarding B3, the IC50 for blocking calcium channels (decrease in fura2 fluorescence) is below 3000 nM.

With B4, the IC50 for blocking calcium channels (decrease in fura2 fluorescence) was below 3000 nM.

Regarding B5, the IC50 for blocking calcium channels (decrease in fura2 fluorescence) is below 3000 nM.

Take B6: the IC50 for blocking calcium channels (decrease in fura2 fluorescence) is below 3000 nM.

Consider B7, for which the IC50 for blocking calcium channels (decrease in fura2 fluorescence) is below 3000 nM.

For the molecule B8, the IC50 for blocking calcium channels (decrease in fura2 fluorescence) is below 3000 nM.

For B9, the IC50 for blocking calcium channels (decrease in fura2 fluorescence) is below 3000 nM.

In another assay the test system is calcium channels. As to conditions: read-out: IC50 values for blocking calcium channels; cerebellar granule cells from 8 day old rats, fura2 fluorescence, 37° C.
As for `COc1ccc(CCN(C)CCCC(C#N)(c2ccc(OC)c(OC)c2)C(C)C)cc1OC` (stereo not shown) [Verapamil], the IC50 is 4800 nM.

(Values after patent publication US5627154A, “Calcium channel blocking polypeptides from Heteropoda venatoria” (Pfizer Inc., priority 1995, dated 1997).)
